Results on 72 sequences are retold here after the supplement of paper PMC10567573.

The series in a line: protein stability index of a GFP-peptide fusion (GPS, HEK-293T) (PSI 1-6); higher = more stable.
Where [1] appears, read: treatment: DMSO, c terminus: a fixed tail appended.
[2] abbreviates: treatment: MLN4924 1 uM, 8 h, c terminus: a fixed tail appended.

± gives the standard deviation.
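Note: 24-mer peptide tiles fused after GFP, lentivirally expressed, FACS-sorted into six equal bins by GFP/DsRed ratio, decoded by Illumina sequencing, PSI is the read-weighted mean bin number.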

MANIHQENEEMEQPMQNGEEDRPL [BEX3] came in with a protein stability index under setting [1] of 5.46 ± 0.055 and a protein stability index under setting [2] of 5.71 ± 0.087.

As for MAREHAFNIGLPDNIVNCNEFLCT [ZNF277], the protein stability index was 2.94 ± 0.21 under setting [1] and 2.92 ± 0.57 under setting [2].

In the case of MATPPFRLIRKMFSFKVSRWMGLA [CCDC70], the protein stability index by setting is: under setting [1], 2.51 ± 0.48; under setting [2], 2.22 ± 0.099.

MCDAFVGTWKLVSSENFDDYMKEV [FABP4] returned a protein stability index under setting [1] of 2.55 ± 0.44 and a protein stability index under setting [2] of 2.42 ± 0.46.

Consider MCKEHEDEKINIYCLTCEVPTCSM [TRIM63], for which the protein stability index was 3.35 ± 0.26 under setting [1] and 3.27 ± 0.35 under setting [2].

With MDVAISNNKKWILSASKDRTMRLW [WDR88], the protein stability index turned out to be 2.38 ± 0.19 under setting [1] and 2.35 ± 0.32 under setting [2].

On to MEAQAQGLLETEPLQGTDEDAVAS [TPD52L1], for which the protein stability index came out at 5.56 ± 0.19 under setting [1] and 5.56 ± 0.16 under setting [2].

As to MELLRTITYQPAASTKMCEQALGK [PLK2], the protein stability index reads like this: under setting [1], 2.46 ± 0.47; under setting [2], 3.06 ± 0.43.

For the sequence METGRWKKINTEGDVPPSMSGSCA [KLHDC2], the protein stability index under setting [1] was found to be 4.01 ± 0.34 and the protein stability index under setting [2] is 4.21 ± 0.097.

With MEVLAAETTSQQERLQAIAEKRKR [PALM], the protein stability index reads like this: under setting [1], 5.15 ± 0.27; under setting [2], 5.23 ± 0.32.

With MGDEEKRNRAITARRQHLKSVMLQ [TNNI2], the protein stability index by setting is: under setting [1], 4.06 ± 0.3; under setting [2], 4.12 ± 0.21.

Take MGGCPVRKRRRNGSKEGNHHSTQP [FAM104B]: the protein stability index is 4.72 ± 0.17 under setting [1] and 4.86 ± 0.24 under setting [2].

As to MGGPFSYVYFFCTVPEILVHNIVI [TMEM106C], the protein stability index was 3.23 ± 0.51 under setting [1] and 3.19 ± 0.82 under setting [2].

MGMNMNIGMSAAGMGLTGTMGMGM [CLINT1] displayed a protein stability index under setting [1] of 2.48 ± 0.18 and a protein stability index under setting [2] of 2.2 ± 0.28.

MGPAPRARPWTRDSASLPRKPSVP [RASAL3] displayed a protein stability index under setting [1] of 4.08 ± 0.14 and a protein stability index under setting [2] of 4.12 ± 0.23.

For the sequence MGTRDDEYDYLFKVVLIGDSGVGK [RAB11A], the protein stability index runs as follows: under setting [1], 2.27 ± 0.41; under setting [2], 2.44 ± 0.35.

Turning to MHPINVRRDPSIPIYGLRQSILLN [C22orf31], the protein stability index is, setting by setting: under setting [1], 2.33 ± 0.22; under setting [2], 2.63 ± 0.51.

For MKALILVGGYGTRLRPLTLSTPKP [GMPPB], the protein stability index under setting [1] was determined as 2.18 ± 0.61 and the protein stability index under setting [2] is 2.23 ± 0.23.

On to MLKRPVLLHLHQTAHADEFDCPSE [STEAP1], for which the protein stability index reads like this: under setting [1], 3.73 ± 0.29; under setting [2], 3.73 ± 0.48.

Consider MMVNLRACSAPGGLVPSEKPPMMP [C2CD2L], for which the protein stability index is 2.14 ± 0.26 under setting [1] and 2.29 ± 0.06 under setting [2].

Turning to MNTEAEQQLLHHARNGNAEEVRQL [OSBPL1A], the protein stability index runs as follows: under setting [1], 5.24 ± 0.28; under setting [2], 5.47 ± 0.12.

As to MQAASSKMVSAEISENRKRQWPTK [SDE2], the protein stability index turned out to be 4.33 ± 0.33 under setting [1] and 4.7 ± 0.17 under setting [2].

On to MQATADSTKMDCVWSNWKSQAIDL [RTN1], for which the protein stability index runs as follows: under setting [1], 3.17 ± 0.11; under setting [2], 3.41 ± 0.36.

In the case of MQPEGLKCRMEESNAERGTAEPFP [CBY2], the protein stability index under setting [1] is 4.88 ± 0.3 and the protein stability index under setting [2] stood at 4.69 ± 0.27.

As to MRRGAPQDQELVGPGPPGRGSRGA [MOSPD3], the protein stability index reads like this: under setting [1], 5.31 ± 0.44; under setting [2], 5 ± 0.28.

Consider MTEMSFLSSEVLVGDLMSPFDQSG [ATF4], for which the protein stability index came out at 3.37 ± 0.1 under setting [1] and 3.24 ± 0.37 under setting [2].

As for MTQVITRTQEEKLEHVRALIKKYS [TRIM55], the protein stability index by setting is: under setting [1], 2.68 ± 0.11; under setting [2], 2.94 ± 0.3.

Regarding MTVGILSNSLAIAILMKAYQRFRQ [PTGFR], the protein stability index was found to be 2.17 ± 0.28 under setting [1] and 2.2 ± 0.31 under setting [2].

As for NEGAIDCVNYEGQSAYDVADMLKQ [DLC1], the protein stability index by setting is: under setting [1], 4.82 ± 0.28; under setting [2], 4.82 ± 0.12.

Sequence NERMLESYLHAKKYLKPSGNMFPT [CARM1] registered a protein stability index under setting [1] of 2.59 ± 0.26 and a protein stability index under setting [2] of 2.99 ± 0.37.

For NEYFFDRNRPSFDAILYYYQSGGR [KCNA3], the protein stability index runs as follows: under setting [1], 2.34 ± 0.3; under setting [2], 2.42 ± 0.18.

For the sequence NGITQGDKLRALKSQRQPRTSPSC [CDC14A], the protein stability index turned out to be 4.16 ± 0.19 under setting [1] and 4.14 ± 0.071 under setting [2].

On to NGVLEPLYLCPNGARCATWFQDPT [SLC25A39], for which the protein stability index runs as follows: under setting [1], 2.48 ± 0.19; under setting [2], 2.47 ± 0.074.

Take NHRLISEILSESVVPDVRSVVTTA [SMARCE1]: the protein stability index under setting [1] is 3.31 ± 0.26 and the protein stability index under setting [2] was found to be 3.17 ± 0.56.

Turning to NIMMPMGGMMPPGPGIPPLMPGMP [ZNF207], the protein stability index is, setting by setting: under setting [1], 2.87 ± 0.29; under setting [2], 2.88 ± 0.13.

Consider NKRVGMYLEGFDPFNQSTFNNVVE [DLC1], for which the protein stability index is 3.09 ± 0.24 under setting [1] and 3.23 ± 0.2 under setting [2].

With NKVELQAKVESMDQEIKFFRCLFE [KRT71], the protein stability index reads like this: under setting [1], 2.52 ± 0.51; under setting [2], 2.48 ± 0.38.

In the case of NLLRDDRVLQNLLTIEERYLPQCS [CCND2], the protein stability index under setting [1] was determined as 2.49 ± 0.26 and the protein stability index under setting [2] amounted to 2.58 ± 0.35.

NLQSLKFQGGHGPAATLLRRSKT [RIPK4]: the protein stability index reads like this: (treatment: DMSO, c terminus: native) 3.18 ± 0.21; (treatment: MLN4924 1 uM, 8 h, c terminus: native) 3.27 ± 0.14.

As for NLSSRWKNWWVRGILTLAMIAFFF [CDS2], the protein stability index amounted to 4.15 ± 0.14 under setting [1] and 4.04 ± 0.15 under setting [2].

NMMKVLRGHQNWVYSCAFSPDSSM [WSB1]: the protein stability index under setting [1] amounted to 2.37 ± 0.96 and the protein stability index under setting [2] is 2.64 ± 0.54.

As to NMPETLPNNSCYSAGIAKLEEGDE [TNFSF13B], the protein stability index by setting is: under setting [1], 5.35 ± 0.23; under setting [2], 5.5 ± 0.21.

With NNFSPLHLAVDKNTTCVGRYPVCK [FEM1C], the protein stability index under setting [1] was determined as 3.42 ± 0.15 and the protein stability index under setting [2] amounted to 3.52 ± 0.12.

In the case of NPTEPATIIFTAAREGRETLKCLS [TOR1AIP2], the protein stability index is, setting by setting: under setting [1], 3.71 ± 0.25; under setting [2], 3.69 ± 0.12.

Regarding NPTQNVRTILLSVISLLNEPNTFS [CDC34], the protein stability index was 2.86 ± 0.54 under setting [1] and 2.95 ± 0.61 under setting [2].

As for NQGYLSEAGASLVDQKLELNIVPR [PI4K2A], the protein stability index runs as follows: under setting [1], 4.05 ± 0.23; under setting [2], 4.33 ± 0.28.

As to NRNHNEGMVTRCIIEVLSNALSKS [CHGB], the protein stability index by setting is: under setting [1], 2.25 ± 0.24; under setting [2], 2.1 ± 0.27.

Take NSHVYNGRTHQWKPLYPDDYVHIS [ADAMTSL2]: the protein stability index reads like this: under setting [1], 2.78 ± 0.31; under setting [2], 2.8 ± 0.34.

For NSLFIDRQKCMAHRTRYPTILQLA [TEKT4], the protein stability index runs as follows: under setting [1], 2.23 ± 0.34; under setting [2], 2.12 ± 0.23.

The sequence NTKLRQAERLFENQLVGPESIAHI [APMAP] displayed a protein stability index under setting [1] of 3.22 ± 0.12 and a protein stability index under setting [2] of 3.42 ± 0.48.

In turn, NTRFVVDPSIFTAQPNTMLGRMFG [BTBD10] gave a protein stability index under setting [1] of 2.51 ± 0.52 and a protein stability index under setting [2] of 2.44 ± 0.16.

NVGLESKYLKKREDSIPLRGLSQN [SASS6]: the protein stability index runs as follows: under setting [1], 4.34 ± 0.19; under setting [2], 4.06 ± 0.26.

Regarding NVPPIPVETLVKKKIPIISNAMLV [ACSBG2], the protein stability index runs as follows: under setting [1], 2.4 ± 0.21; under setting [2], 2.38 ± 0.27.

As to NYASIIRRDCMWSGFSARERLERA [MYCL], the protein stability index under setting [1] is 2.78 ± 0.3 and the protein stability index under setting [2] amounted to 2.77 ± 0.3.

With NYPKGGLLDSMCPASTPSVLSSEQ [ETS2], the protein stability index was determined as 4.64 ± 0.26 under setting [1] and 4.45 ± 0.15 under setting [2].

NYQAHQSRVTMILFVLELEWVLST [WDFY2] came in with a protein stability index under setting [1] of 3.1 ± 0.08 and a protein stability index under setting [2] of 2.89 ± 0.67.

As to PAAGLDVTQPCGDCGTIQENWVCL [HDAC6], the protein stability index is, setting by setting: under setting [1], 2.68 ± 0.25; under setting [2], 2.79 ± 0.25.

As for PAYATTRIRSQIGNTESELKKLAE [GDAP1], the protein stability index came to 4.53 ± 0.095 under setting [1] and 4.53 ± 0.18 under setting [2].

Turning to PCKLEKMRILAHGELVLATAISSF [TLE6], the protein stability index by setting is: under setting [1], 2.7 ± 0.36; under setting [2], 2.45 ± 0.41.

As to PDDSTSEDGIHTLTCALMLLNTDL [PSD2], the protein stability index under setting [1] stood at 3.12 ± 0.27 and the protein stability index under setting [2] came to 3.1 ± 0.34.

Regarding PDEERPLRRPRPVQRTQSVPVRRP [RASAL3], the protein stability index is 5.19 ± 0.27 under setting [1] and 5.21 ± 0.18 under setting [2].

For PDREKGFHLDVEDYLSGVLILASE [TSN], the protein stability index worked out at 2.14 ± 0.1 under setting [1] and 2.81 ± 0.2 under setting [2].

Turning to PDSPATGAHWMRQLVSFQKLKLTN [TBX5], the protein stability index stood at 2.92 ± 0.35 under setting [1] and 3 ± 0.21 under setting [2].

Consider PEAVDEDRSTEPDRLQVFHKRAIM [ATE1], for which the protein stability index reads like this: under setting [1], 4.8 ± 0.23; under setting [2], 4.91 ± 0.12.

PEEPAASTDPNIVRKKERGREEKC [TAF7L] displayed a protein stability index under setting [1] of 5.28 ± 0.53 and a protein stability index under setting [2] of 5.64 ± 0.32.

Regarding PEGGLEEPDALDDSLTSLQWLQEF [FOXJ1], the protein stability index reads like this: under setting [1], 4.64 ± 0.17; under setting [2], 4.53 ± 0.3.

The sequence PEGYNLKDEEGRLRDPATITTLRV [PPP2R2B] came in with a protein stability index under setting [1] of 4.54 ± 0.062 and a protein stability index under setting [2] of 4.37 ± 0.29.

For PELTITSLFSPVTEDSPLGTVVAL [PCDHGA10], the protein stability index turned out to be 2.56 ± 0.26 under setting [1] and 2.72 ± 0.33 under setting [2].

Turning to PESAIKFMAYEQIKRLVGSDQETL [SLC25A25], the protein stability index by setting is: under setting [1], 3.31 ± 0.15; under setting [2], 3.4 ± 0.25.

As to PFTKKRVGVDRAFPLKPMVHRKSC [ZC2HC1C], the protein stability index stood at 3.4 ± 0.13 under setting [1] and 3.65 ± 0.1 under setting [2].

With PFYPEVELNFISVFWPQLPNGLEA [MMP1], the protein stability index by setting is: under setting [1], 2.61 ± 0.28; under setting [2], 2.62 ± 0.52.

For PGACPALGTKSCSSSCAVHDLIFW [RTN3], the protein stability index runs as follows: under setting [1], 2.35 ± 0.33; under setting [2], 2.29 ± 0.39.
